Experiment [1] addresses SARS-CoV-2 spike protein receptor binding domain (RBD2) (SARS-CoV-2) (UniProt P0DTC2). The experiment can be described thus: SPR sandwich binning, ligand F07; light (intermediate) cell.
The target is the same in experiment [2]. The experiment can be described thus: SPR sandwich binning, ligand H01.
For experiment [3] the target is unchanged. The experiment can be described thus: SPR sandwich binning, ligand H05.
The target is the same in experiment [4]. The experiment can be described thus: SPR sandwich binning, ligand G07.
Experiment [5] shares this target. Description: SPR sandwich binning, ligand CR3022.
Experiment [6] shares this target. Description: SPR sandwich binning, ligand B04.
The target is the same in experiment [7]. The experiment can be described thus: SPR sandwich binning, ligand S01.
For experiment [8] the target is unchanged. The experiment can be described thus: SPR, immobilized antibody, RBD injected, 1:1 fit. Background: Surface plasmon resonance follows binding to a sensor surface in real time, without labels.
Experiment [9] has the same target. The experiment can be described thus: SPR sandwich binning, ligand E01.
Experiment [10] shares this target.
The target is the same in experiment [11]. The experiment can be described thus: SPR sandwich binning, ligand E08.
The target is the same in experiment [12]. The experiment can be described thus: SPR sandwich binning, ligand Anti-His.

Like-named read-outs stand apart in the source and are kept apart here.

Usually Kd stands for the equilibrium constant for the complex coming apart. Read a low Kd as tighter binding.

With “CR3022 (commercial anti-RBD2 antibody, reference IgG)”, the normalized analyte binding to RBD2 held by the immobilized ligand in experiment [1] is 0.23; in [2], -0.01; in experiment [3], -0.14; in experiment [4], 1.35; in experiment [5], -0.14; in experiment [6], 1.64. Besides, the normalized analyte binding to RBD2 held by the immobilized ligand in experiment [7] is 1.83; in [9], 1.63; in experiment [11], -0.1; in experiment [12] it was 1.45. For the same substance, the Kd in [8] stood at 110 nM; in [10] it was 114 nM.

(Values after US12018066.)
